From publication doi:10.1101/2020.08.10.244244

Target: HA-tagged mutant (Leu15) AP2σ2 subunit (human) (human) (UniProt P53680)
Test: co-IP

Substance: AP2α subunit, endogenous in HEK293 cells (from UniProt O95782 1-977) (natural protein)
- reduction of the subunit in the HA-AP2σ2 immunoprecipitate against WT cells: > 50%
